Assay results as given in article PMC6146289, “Combinatorial use of disulfide bridges and native sulfur-SAD phasing for rapid structure determination of coiled-coils” (Bioscience Reports, 2018).

Target: the molecule itself
Assay: SEC-MALS; oxidizing conditions: 20 mM Tris-HCl, pH 7.5, 150 mM NaCl, without DTT; S-200 10/30 column; 100 μl at 4 mg/ml injected; 10°C

B1: HsCEP135 82–144 (amino acids 82–144 of human CEP135, centrosomal protein of 135 kDa) (domain or fragment, UniProt Q66GS9 82-144, looked up)
chain: NNELYLELMKLREHSDQHVKELKTSLKKCARETADLKFLNNQYAHKLKLLEKESKAKNERIQQ
notes: coiled-coil fragment with one cysteine (Cys110) and one methionine per monomer; Under oxidizing conditions Cys110 forms a homotypic disulfide bridge between the two chains of the parallel coiled-coil dimer; Calculated molecular weight 7.71 kDa
stoichiometry N: 2
